From article PMC2680043, “Characterization of a Novel Small Molecule Subtype Specific Estrogen-Related Receptor α Antagonist in MCF-7 Breast Cancer Cells” (PLoS ONE, 2009)

Legend:
Assay in all cases: pull-down; biotinylated coactivator RID bound to streptavidin beaded agarose; in vitro translated [35S]-labeled ERRα added in 1x TBS with 10 µM Compound A, 4 hours at 4°C; SDS gel, phosphorimaging; compared with the DMSO sample
Settings in all cases: one partner purified
[1] = target: T1, AIB1 receptor interaction domain (RID), aa 557-773, biotinylated (UniProt Q9Y6Q9 557-773, biotinylated (sites not given))
T1 construct: also called AIB1 RID; SRC-3
T1 sequence (looked up): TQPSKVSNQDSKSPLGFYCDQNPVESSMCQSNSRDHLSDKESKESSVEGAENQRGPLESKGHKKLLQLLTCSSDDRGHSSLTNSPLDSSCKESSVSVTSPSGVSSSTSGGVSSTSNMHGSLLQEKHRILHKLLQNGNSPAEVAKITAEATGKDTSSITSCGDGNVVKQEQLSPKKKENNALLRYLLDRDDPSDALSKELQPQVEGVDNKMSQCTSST

[2] = target: T2, GRIP-1 receptor interaction domain (RID), aa 565-798, biotinylated (UniProt Q61026 565-798, biotinylated (sites not given))
T2 construct: also called GRIP-1 RID; SRC-2
T2 sequence (looked up): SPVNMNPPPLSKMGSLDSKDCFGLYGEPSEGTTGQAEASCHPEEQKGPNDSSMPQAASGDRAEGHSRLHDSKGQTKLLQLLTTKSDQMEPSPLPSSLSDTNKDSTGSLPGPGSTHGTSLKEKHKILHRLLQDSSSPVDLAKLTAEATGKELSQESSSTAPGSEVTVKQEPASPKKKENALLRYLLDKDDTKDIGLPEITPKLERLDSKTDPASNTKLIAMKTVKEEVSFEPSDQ

[3] = target: T3, PGC-1α receptor interaction domain (RID), aa 1-338, biotinylated (UniProt Q9UBK2 1-338, biotinylated (sites not given))
T3 construct: also called PGC-1α RID; PPARGC1A
T3 sequence (looked up): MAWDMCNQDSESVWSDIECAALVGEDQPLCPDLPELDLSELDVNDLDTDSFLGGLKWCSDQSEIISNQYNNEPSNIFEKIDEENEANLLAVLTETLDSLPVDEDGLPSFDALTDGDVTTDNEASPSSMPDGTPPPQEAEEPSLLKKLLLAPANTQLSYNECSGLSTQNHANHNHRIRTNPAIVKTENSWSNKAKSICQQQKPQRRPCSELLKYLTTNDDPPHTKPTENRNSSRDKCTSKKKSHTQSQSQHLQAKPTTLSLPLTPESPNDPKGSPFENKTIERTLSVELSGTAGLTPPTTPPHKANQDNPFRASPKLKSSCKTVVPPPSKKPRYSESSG

percent reduction of the interaction with 10 µM Compound A against vehicle (DMSO) [1]: 35%
percent reduction of the interaction with 10 µM Compound A against vehicle (DMSO) [2]: 29%
percent reduction of the interaction with 10 µM Compound A against vehicle (DMSO) [3]: 81%
B1: full-length human estrogen-related receptor α (ERRα), [35S]methionine-labeled (receptor, UniProt P11474 1-423, looked up)
chain: MSSQVVGIEPLYIKAEPASPDSPKGSSETETEPPVALAPGPAPTRCLPGHKEEEDGEGAGPGEQGGGKLVLSSLPKRLCLVCGDVASGYHYGVASCEACKAFFKRTIQGSIEYSCPASNECEITKRRRKACQACRFTKCLRVGMLKEGVRLDRVRGGRQKYKRRPEVDPLPFPGPFPAGPLAVAGGPRKTAAPVNALVSHLLVVEPEKLYAMPDPAGPDGHLPAVATLCDLFDREIVVTISWAKSIPGFSSLSLSDQMSVLQSVWMEVLVLGVAQRSLPLQDELAFAEDLVLDEEGARAAGLGELGAALLQLVRRLQALRLEREEYVLLKALALANSDSVHIEDAEAVEQLREALHEALLEYEAGRAGPGGGAERRRAGRLLLTLPLLRQTAGKVLAHFYGVKLEGKVPMHKLFLEMLEAMMD
modifications: [35S]methionine label
notes: estrogen-related receptor alpha, human, full length, amplified from human brain Marathon-ready cDNA and cloned into pcDNA3.1(+); No tag is named for this construct; also called hERRα; ESRRA; source: in vitro translated (TnT coupled reticulocyte lysate system, Promega), [35S]methionine added
